Results taken from doi:10.1101/2024.08.25.607996.

Legend:
[1] = biological target: feline APN ectodomain without the Fc fusion (dimer) (feline) (UniProt P79171); assay: cryo-EM structure
[2] = biological target: FCoV-23 S domain B (receptor-binding domain), residues 529-677, avi- and His-tagged (FCoV-23 (feline coronavirus)); assay: BLI

feline APN ectodomain without the Fc fusion (dimer) (feline), sequence (P79171 64-967): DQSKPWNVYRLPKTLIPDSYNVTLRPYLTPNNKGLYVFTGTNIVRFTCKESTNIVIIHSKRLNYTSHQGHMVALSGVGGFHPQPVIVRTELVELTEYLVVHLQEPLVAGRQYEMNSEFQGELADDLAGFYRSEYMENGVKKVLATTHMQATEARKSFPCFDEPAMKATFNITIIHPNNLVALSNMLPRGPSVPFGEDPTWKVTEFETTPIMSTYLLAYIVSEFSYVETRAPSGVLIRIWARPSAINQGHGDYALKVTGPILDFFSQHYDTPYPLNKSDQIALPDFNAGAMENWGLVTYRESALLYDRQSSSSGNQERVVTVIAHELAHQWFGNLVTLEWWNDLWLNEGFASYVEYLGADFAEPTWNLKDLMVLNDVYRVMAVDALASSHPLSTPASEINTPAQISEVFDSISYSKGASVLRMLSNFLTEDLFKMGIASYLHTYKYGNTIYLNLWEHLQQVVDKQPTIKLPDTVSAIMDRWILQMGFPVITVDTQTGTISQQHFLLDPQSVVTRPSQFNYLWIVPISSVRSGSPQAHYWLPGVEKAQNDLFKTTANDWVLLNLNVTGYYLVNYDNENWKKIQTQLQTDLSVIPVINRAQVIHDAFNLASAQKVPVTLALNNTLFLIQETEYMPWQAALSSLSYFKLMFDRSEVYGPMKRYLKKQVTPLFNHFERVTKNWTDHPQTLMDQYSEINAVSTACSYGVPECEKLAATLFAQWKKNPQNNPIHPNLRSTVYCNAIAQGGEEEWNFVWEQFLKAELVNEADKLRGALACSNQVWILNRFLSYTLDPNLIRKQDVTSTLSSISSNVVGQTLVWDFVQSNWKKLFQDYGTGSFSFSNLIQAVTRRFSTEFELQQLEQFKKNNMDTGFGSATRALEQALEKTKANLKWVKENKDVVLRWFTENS
feline APN-Fc ectodomain (dimeric), sequence (P79171 64-967): as above
canine APN-Fc ectodomain (dimeric), sequence (P79143 71-975): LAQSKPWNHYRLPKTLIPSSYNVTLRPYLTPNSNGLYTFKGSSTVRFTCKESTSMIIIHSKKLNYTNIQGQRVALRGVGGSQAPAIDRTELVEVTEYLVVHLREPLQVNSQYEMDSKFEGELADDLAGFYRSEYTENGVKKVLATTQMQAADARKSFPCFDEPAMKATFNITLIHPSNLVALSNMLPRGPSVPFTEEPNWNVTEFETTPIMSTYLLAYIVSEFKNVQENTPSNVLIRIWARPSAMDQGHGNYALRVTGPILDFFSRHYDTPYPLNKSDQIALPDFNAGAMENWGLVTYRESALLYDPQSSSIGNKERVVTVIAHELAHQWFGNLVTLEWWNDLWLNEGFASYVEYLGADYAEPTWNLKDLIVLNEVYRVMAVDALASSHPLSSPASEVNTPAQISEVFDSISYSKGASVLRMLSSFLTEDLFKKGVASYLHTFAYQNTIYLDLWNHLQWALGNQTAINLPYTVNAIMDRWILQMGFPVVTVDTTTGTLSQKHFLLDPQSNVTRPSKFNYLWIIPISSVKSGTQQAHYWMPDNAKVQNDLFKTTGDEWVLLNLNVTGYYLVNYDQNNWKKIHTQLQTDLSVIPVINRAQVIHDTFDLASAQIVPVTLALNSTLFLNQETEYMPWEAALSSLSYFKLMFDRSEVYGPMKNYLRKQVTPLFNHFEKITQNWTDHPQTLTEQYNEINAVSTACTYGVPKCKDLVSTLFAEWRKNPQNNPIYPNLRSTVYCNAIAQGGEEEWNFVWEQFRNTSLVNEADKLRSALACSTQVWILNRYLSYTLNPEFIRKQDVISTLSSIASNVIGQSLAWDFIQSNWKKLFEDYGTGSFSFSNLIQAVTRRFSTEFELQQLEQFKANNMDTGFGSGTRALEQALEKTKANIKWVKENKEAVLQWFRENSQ

Substance	stoichiometry N (RBD per APN protomer) [1]	Kd [2]
FCoV-23 S domain B (receptor-binding domain), residues 529-677, avi- and His-tagged (domain or fragment)	1	
canine APN-Fc ectodomain (dimeric) (from UniProt P79143 71-975) (Fc fusion)		1.3 nM
feline APN-Fc ectodomain (dimeric) (from UniProt P79171 64-967) (Fc fusion)		11 nM
